Reference: patent publication US12679878B2, “CRF2 receptor agonists and their use in therapy” (SANOFI, priority 2020, dated 2026)
Starred links: 1 amine or outer side, 2 acyl side, 3 side chain; linkers in the order of their positions; H or OH if unused. Non-standard residues stand in square brackets, D forms with d. Groups on a side chain read outwards from the residue. No end group written: not given here. *: point of attachment. C16 diacid = O=C(O)CCCCCCCCCCCCCCC(=O)*; γGlu = O=C(O)[C@H](CCC(=O)[*:2])N[*:1]; Aib = CC(C)(N)C(=O)O

B1: peptide of SEQ ID NO: 193 (peptide)
peptide: IVLSLD[dV]PIGLK([γGlu-C16 diacid])QILLKQERQKK[Aib]REQAETNKRILERV-NH2
modifications: N-terminus assumed
SMILES: CC[C@H](C)[C@H](N)C(=O)N[C@H](C(=O)N[C@@H](CC(C)C)C(=O)N[C@@H](CO)C(=O)N[C@@H](CC(C)C)C(=O)N[C@@H](CC(=O)O)C(=O)N[C@@H](C(=O)N1CCC[C@H]1C(=O)N[C@H](C(=O)NCC(=O)N[C@@H](CC(C)C)C(=O)N[C@@H](CCCCNC(=O)CC[C@H](NC(=O)CCCCCCCCCCCCCCC(=O)O)C(=O)O)C(=O)N[C@@H](CCC(N)=O)C(=O)N[C@H](C(=O)N[C@@H](CC(C)C)C(=O)N[C@@H](CC(C)C)C(=O)N[C@@H](CCCCN)C(=O)N[C@@H](CCC(N)=O)C(=O)N[C@@H](CCC(=O)O)C(=O)N[C@@H](CCCNC(=N)N)C(=O)N[C@@H](CCC(N)=O)C(=O)N[C@@H](CCCCN)C(=O)N[C@@H](CCCCN)C(=O)NC(C)(C)C(=O)N[C@@H](CCCNC(=N)N)C(=O)N[C@@H](CCC(=O)O)C(=O)N[C@@H](CCC(N)=O)C(=O)N[C@@H](C)C(=O)N[C@@H](CCC(=O)O)C(=O)N[C@H](C(=O)N[C@@H](CC(N)=O)C(=O)N[C@@H](CCCCN)C(=O)N[C@@H](CCCNC(=N)N)C(=O)N[C@H](C(=O)N[C@@H](CC(C)C)C(=O)N[C@@H](CCC(=O)O)C(=O)N[C@@H](CCCNC(=N)N)C(=O)N[C@H](C(N)=O)C(C)C)[C@@H](C)CC)[C@@H](C)O)[C@@H](C)CC)[C@@H](C)CC)C(C)C)C(C)C
B2: peptide of SEQ ID NO: 189 (peptide)
peptide: IVLSLD[dV]PIKLK([γGlu-C16 diacid])QILLKQERQKK[Aib]RQKAEKNKQILAQV-NH2
modifications: N-terminus assumed
SMILES: CC[C@H](C)[C@H](N)C(=O)N[C@H](C(=O)N[C@@H](CC(C)C)C(=O)N[C@@H](CO)C(=O)N[C@@H](CC(C)C)C(=O)N[C@@H](CC(=O)O)C(=O)N[C@@H](C(=O)N1CCC[C@H]1C(=O)N[C@H](C(=O)N[C@@H](CCCCN)C(=O)N[C@@H](CC(C)C)C(=O)N[C@@H](CCCCNC(=O)CC[C@H](NC(=O)CCCCCCCCCCCCCCC(=O)O)C(=O)O)C(=O)N[C@@H](CCC(N)=O)C(=O)N[C@H](C(=O)N[C@@H](CC(C)C)C(=O)N[C@@H](CC(C)C)C(=O)N[C@@H](CCCCN)C(=O)N[C@@H](CCC(N)=O)C(=O)N[C@@H](CCC(=O)O)C(=O)N[C@@H](CCCNC(=N)N)C(=O)N[C@@H](CCC(N)=O)C(=O)N[C@@H](CCCCN)C(=O)N[C@@H](CCCCN)C(=O)NC(C)(C)C(=O)N[C@@H](CCCNC(=N)N)C(=O)N[C@@H](CCC(N)=O)C(=O)N[C@@H](CCCCN)C(=O)N[C@@H](C)C(=O)N[C@@H](CCC(=O)O)C(=O)N[C@@H](CCCCN)C(=O)N[C@@H](CC(N)=O)C(=O)N[C@@H](CCCCN)C(=O)N[C@@H](CCC(N)=O)C(=O)N[C@H](C(=O)N[C@@H](CC(C)C)C(=O)N[C@@H](C)C(=O)N[C@@H](CCC(N)=O)C(=O)N[C@H](C(N)=O)C(C)C)[C@@H](C)CC)[C@@H](C)CC)[C@@H](C)CC)C(C)C)C(C)C
B3: peptide of SEQ ID NO: 195 (peptide)
peptide: IVLSLD[dV]PIGLK([γGlu-C16 diacid])QILLKQERQKK[Aib]RQQAETNKRILERV-NH2
modifications: N-terminus assumed
SMILES: CC[C@H](C)[C@H](N)C(=O)N[C@H](C(=O)N[C@@H](CC(C)C)C(=O)N[C@@H](CO)C(=O)N[C@@H](CC(C)C)C(=O)N[C@@H](CC(=O)O)C(=O)N[C@@H](C(=O)N1CCC[C@H]1C(=O)N[C@H](C(=O)NCC(=O)N[C@@H](CC(C)C)C(=O)N[C@@H](CCCCNC(=O)CC[C@H](NC(=O)CCCCCCCCCCCCCCC(=O)O)C(=O)O)C(=O)N[C@@H](CCC(N)=O)C(=O)N[C@H](C(=O)N[C@@H](CC(C)C)C(=O)N[C@@H](CC(C)C)C(=O)N[C@@H](CCCCN)C(=O)N[C@@H](CCC(N)=O)C(=O)N[C@@H](CCC(=O)O)C(=O)N[C@@H](CCCNC(=N)N)C(=O)N[C@@H](CCC(N)=O)C(=O)N[C@@H](CCCCN)C(=O)N[C@@H](CCCCN)C(=O)NC(C)(C)C(=O)N[C@@H](CCCNC(=N)N)C(=O)N[C@@H](CCC(N)=O)C(=O)N[C@@H](CCC(N)=O)C(=O)N[C@@H](C)C(=O)N[C@@H](CCC(=O)O)C(=O)N[C@H](C(=O)N[C@@H](CC(N)=O)C(=O)N[C@@H](CCCCN)C(=O)N[C@@H](CCCNC(=N)N)C(=O)N[C@H](C(=O)N[C@@H](CC(C)C)C(=O)N[C@@H](CCC(=O)O)C(=O)N[C@@H](CCCNC(=N)N)C(=O)N[C@H](C(N)=O)C(C)C)[C@@H](C)CC)[C@@H](C)O)[C@@H](C)CC)[C@@H](C)CC)C(C)C)C(C)C
B4: peptide of SEQ ID NO: 196 (peptide)
peptide: IVLSLD[dV]PIGLK([γGlu-C16 diacid])QILLKQERQKK[Aib]REQAEKNKRILERV-NH2
modifications: N-terminus assumed
SMILES: CC[C@H](C)[C@H](N)C(=O)N[C@H](C(=O)N[C@@H](CC(C)C)C(=O)N[C@@H](CO)C(=O)N[C@@H](CC(C)C)C(=O)N[C@@H](CC(=O)O)C(=O)N[C@@H](C(=O)N1CCC[C@H]1C(=O)N[C@H](C(=O)NCC(=O)N[C@@H](CC(C)C)C(=O)N[C@@H](CCCCNC(=O)CC[C@H](NC(=O)CCCCCCCCCCCCCCC(=O)O)C(=O)O)C(=O)N[C@@H](CCC(N)=O)C(=O)N[C@H](C(=O)N[C@@H](CC(C)C)C(=O)N[C@@H](CC(C)C)C(=O)N[C@@H](CCCCN)C(=O)N[C@@H](CCC(N)=O)C(=O)N[C@@H](CCC(=O)O)C(=O)N[C@@H](CCCNC(=N)N)C(=O)N[C@@H](CCC(N)=O)C(=O)N[C@@H](CCCCN)C(=O)N[C@@H](CCCCN)C(=O)NC(C)(C)C(=O)N[C@@H](CCCNC(=N)N)C(=O)N[C@@H](CCC(=O)O)C(=O)N[C@@H](CCC(N)=O)C(=O)N[C@@H](C)C(=O)N[C@@H](CCC(=O)O)C(=O)N[C@@H](CCCCN)C(=O)N[C@@H](CC(N)=O)C(=O)N[C@@H](CCCCN)C(=O)N[C@@H](CCCNC(=N)N)C(=O)N[C@H](C(=O)N[C@@H](CC(C)C)C(=O)N[C@@H](CCC(=O)O)C(=O)N[C@@H](CCCNC(=N)N)C(=O)N[C@H](C(N)=O)C(C)C)[C@@H](C)CC)[C@@H](C)CC)[C@@H](C)CC)C(C)C)C(C)C
B5: peptide of SEQ ID NO: 187 (peptide)
peptide: IVLSLD[dV]PIKLK([γGlu-C16 diacid])QILLKQERQK[Aib]QREQAEKNKQILAQV-NH2
modifications: N-terminus assumed
SMILES: CC[C@H](C)[C@H](N)C(=O)N[C@H](C(=O)N[C@@H](CC(C)C)C(=O)N[C@@H](CO)C(=O)N[C@@H](CC(C)C)C(=O)N[C@@H](CC(=O)O)C(=O)N[C@@H](C(=O)N1CCC[C@H]1C(=O)N[C@H](C(=O)N[C@@H](CCCCN)C(=O)N[C@@H](CC(C)C)C(=O)N[C@@H](CCCCNC(=O)CC[C@H](NC(=O)CCCCCCCCCCCCCCC(=O)O)C(=O)O)C(=O)N[C@@H](CCC(N)=O)C(=O)N[C@H](C(=O)N[C@@H](CC(C)C)C(=O)N[C@@H](CC(C)C)C(=O)N[C@@H](CCCCN)C(=O)N[C@@H](CCC(N)=O)C(=O)N[C@@H](CCC(=O)O)C(=O)N[C@@H](CCCNC(=N)N)C(=O)N[C@@H](CCC(N)=O)C(=O)N[C@@H](CCCCN)C(=O)NC(C)(C)C(=O)N[C@@H](CCC(N)=O)C(=O)N[C@@H](CCCNC(=N)N)C(=O)N[C@@H](CCC(=O)O)C(=O)N[C@@H](CCC(N)=O)C(=O)N[C@@H](C)C(=O)N[C@@H](CCC(=O)O)C(=O)N[C@@H](CCCCN)C(=O)N[C@@H](CC(N)=O)C(=O)N[C@@H](CCCCN)C(=O)N[C@@H](CCC(N)=O)C(=O)N[C@H](C(=O)N[C@@H](CC(C)C)C(=O)N[C@@H](C)C(=O)N[C@@H](CCC(N)=O)C(=O)N[C@H](C(N)=O)C(C)C)[C@@H](C)CC)[C@@H](C)CC)[C@@H](C)CC)C(C)C)C(C)C
B6: peptide of SEQ ID NO: 190 (peptide)
peptide: IVLSLD[dV]PIKLK([γGlu-C16 diacid])QILLKQERQKKQREQAEKNKQILEQV-NH2
modifications: N-terminus assumed
SMILES: CC[C@H](C)[C@H](N)C(=O)N[C@H](C(=O)N[C@@H](CC(C)C)C(=O)N[C@@H](CO)C(=O)N[C@@H](CC(C)C)C(=O)N[C@@H](CC(=O)O)C(=O)N[C@@H](C(=O)N1CCC[C@H]1C(=O)N[C@H](C(=O)N[C@@H](CCCCN)C(=O)N[C@@H](CC(C)C)C(=O)N[C@@H](CCCCNC(=O)CC[C@H](NC(=O)CCCCCCCCCCCCCCC(=O)O)C(=O)O)C(=O)N[C@@H](CCC(N)=O)C(=O)N[C@H](C(=O)N[C@@H](CC(C)C)C(=O)N[C@@H](CC(C)C)C(=O)N[C@@H](CCCCN)C(=O)N[C@@H](CCC(N)=O)C(=O)N[C@@H](CCC(=O)O)C(=O)N[C@@H](CCCNC(=N)N)C(=O)N[C@@H](CCC(N)=O)C(=O)N[C@@H](CCCCN)C(=O)N[C@@H](CCCCN)C(=O)N[C@@H](CCC(N)=O)C(=O)N[C@@H](CCCNC(=N)N)C(=O)N[C@@H](CCC(=O)O)C(=O)N[C@@H](CCC(N)=O)C(=O)N[C@@H](C)C(=O)N[C@@H](CCC(=O)O)C(=O)N[C@@H](CCCCN)C(=O)N[C@@H](CC(N)=O)C(=O)N[C@@H](CCCCN)C(=O)N[C@@H](CCC(N)=O)C(=O)N[C@H](C(=O)N[C@@H](CC(C)C)C(=O)N[C@@H](CCC(=O)O)C(=O)N[C@@H](CCC(N)=O)C(=O)N[C@H](C(N)=O)C(C)C)[C@@H](C)CC)[C@@H](C)CC)[C@@H](C)CC)C(C)C)C(C)C

How the values were obtained:
[1] = biological target: human corticotropin-releasing factor 2α (CRF2α receptor) (human), Q13324; assay: cell-based or functional assay
human corticotropin-releasing factor 2α (CRF2α receptor) (human), Q13324, sequence (Q13324 20-411): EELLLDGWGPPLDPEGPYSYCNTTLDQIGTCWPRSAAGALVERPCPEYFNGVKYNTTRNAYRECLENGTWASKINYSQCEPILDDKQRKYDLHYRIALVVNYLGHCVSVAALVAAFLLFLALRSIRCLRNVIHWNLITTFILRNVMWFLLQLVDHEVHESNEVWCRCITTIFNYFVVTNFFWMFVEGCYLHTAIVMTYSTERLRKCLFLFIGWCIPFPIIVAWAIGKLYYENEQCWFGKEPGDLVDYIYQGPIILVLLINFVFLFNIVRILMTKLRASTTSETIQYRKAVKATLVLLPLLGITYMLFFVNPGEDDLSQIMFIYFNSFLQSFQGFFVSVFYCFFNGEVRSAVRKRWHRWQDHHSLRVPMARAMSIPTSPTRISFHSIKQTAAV

[2] = biological target: human corticotropin-releasing factor 2α receptor (CRF2α receptor) (human), Q13324; assay: cell-based or functional assay
human corticotropin-releasing factor 2α receptor (CRF2α receptor) (human), Q13324, sequence (Q13324 20-411): as above

| Binder | EC50 [nM], 0% HSA (cAMP, HTRF) [1] [nM] | CRF2 EC50 (cAMP, HTRF) [2] [nM] |
| --- | --- | --- |
| B1 | 0.82 | 0.82 |
| B2 | 3.49 | 3.49 |
| B3 | 0.34 | 0.34 |
| B4 | 1.08 | 1.08 |
| B5 | 0.44 | 0.44 |
| B6 | 2.47 | 2.47 |
